# B1: T2a: NBD1-specific CFTR-stabilizing nanobody, SEQ ID NO:3, binds epitope 1 (protein)
# VHH: QVQLQESGGGLVQAGGSLRLSCAASGSIFRIDAMGWYRQAPGKQRELVAHSTSGGSTDYADSVKGRFTISRDNAKNTVYLQMNSLKPEDTAVYYCNADVRTRWYASNNYWGQGTQVTVSS
# modifications: T2a Nanobody amino acid sequence
# B2: T8: nanobody, SEQ ID NO:7, binds epitope 2 including F508, stabilizes WT CFTR but not F508del (protein)
# VHH: QVQLQESGGGLVQPGGSLRLSCAASGSTSSINAMGWYRQAPGKQREPVAISSSGGDTRYAEPVKGRFTISRDNAQNKVYLQMNSLKPEDTAVYYCWLNWGRTSVNSWGQGTQVTVSS
# modifications: T8 Nanobody amino acid sequence
# B3: T27: NBD1-specific CFTR-stabilizing nanobody, SEQ ID NO:4, binds epitope 1 (protein)
# VHH: QVQLQESGGGLEQPGGSLRLSCATSGVIFGINAMGWYRQAPGKQRELVATFTSGGSTNYADFVEGRFTISRDNAKNTVYLQMNGLRPEDTAVYYCHATVVVSRYGLTYDYWGQGTQVTVSS
# modifications: T27 Nanobody amino acid sequence
# B4: D12: NBD1-specific CFTR-stabilizing nanobody, SEQ ID NO:2, binds epitope 1 (protein)
# VHH: QVQLQESGGGLVQAGSSLRLACAATGSIRSINNMGWYRQAPGKQRGMVAIITRVGNTDYADSVKGRFTISRDNAKNTVYLQMNSLKPEDTATYYCHAEITEQSRPFYLTDDYWGQGTQVTVSS
# modifications: D12 Nanobody amino acid sequence
# B5: G3a: non-stabilizing nanobody, SEQ ID NO:50, recognizes the structurally diverse region of NBD1 (protein)
# VHH: QVQLQESGGGLVQAGGSLRLSCTASGRAFSWYVMGWFRQAPGKEREFVATVSGNGSRRDYADSVKGRFTISRDNAKNTVYLQMNSLKPEDTAVYYCAASSTYYYTDPEKYDYWGQGTQVTVSS
# modifications: G3a Nanobody
# Biological target: T1, F508del-2PT-NBD1 (Homo sapiens, UniProt P13569, A534P/DEL508-508/I539T/S492P/V470M)
# T1 construct: His6-SUMO (N, cleaved yes); made in house; host or cells: Escherichia coli BL21(DE3) pLysS
# T1 sequence (P13569 with tags, fused parts or gaps V470M/S492P/DEL508-508/A534P/I539T limits assumed): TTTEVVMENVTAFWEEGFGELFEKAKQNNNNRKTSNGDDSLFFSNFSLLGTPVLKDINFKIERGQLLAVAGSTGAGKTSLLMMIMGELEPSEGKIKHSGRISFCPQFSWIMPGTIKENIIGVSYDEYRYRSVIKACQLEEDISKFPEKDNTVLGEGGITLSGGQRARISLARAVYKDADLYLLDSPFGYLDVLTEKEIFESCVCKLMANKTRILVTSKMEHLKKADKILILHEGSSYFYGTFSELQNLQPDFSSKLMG
# Assay: Thermal shift assay (DSF) of F508del-2PT-NBD1
# Assay type: binding
# Conditions: not given
# Procedure: Solutions of either 2PT-NBD1 or F508del-2PT-NBD1 (10 μM final concentration), nanobodies (30 μM final concentration) and 2.5× or 5× concentrated SYPRO Orange Protein Stain (Molecular Probes) diluted in 20 mM HEPES pH 7.5, 150 mM NaCl, 3 mM MgCl2, 2 mM ATP and 10% (w/v) glycerol, 10% (w/v) ethylene glycol, were added to the wells of a 96-well PCR plates type BR white (VWR) in a final volume of 25 μl. Plates were sealed with EasySeal sheets (Molecular dimensions) and spun 2 min at 900× g. SYPRO orange fluorescence was monitored in CFX96 Touch Real-Time PCR Detection System (Bio-Rad) using FRET scan mode from 10 to 80° C. in increments of either 1° C. or 0.2° C.
row,Molecule,stabilization of F508del-2PT-NBD1
1,B1,to the same extent as 2PT-NBD1
2,B2,did not stabilize
3,B3,to the same extent as 2PT-NBD1
4,B4,to the same extent as 2PT-NBD1

# Biological target: T2, 2PT-F508del-CFTR (Homo sapiens, UniProt P13569, A534P/DEL508-508/I539T/S492P)
# T2 construct: expressed in transfected cells
# T2 sequence (P13569 with tags, fused parts or gaps S492P/DEL508-508/A534P/I539T): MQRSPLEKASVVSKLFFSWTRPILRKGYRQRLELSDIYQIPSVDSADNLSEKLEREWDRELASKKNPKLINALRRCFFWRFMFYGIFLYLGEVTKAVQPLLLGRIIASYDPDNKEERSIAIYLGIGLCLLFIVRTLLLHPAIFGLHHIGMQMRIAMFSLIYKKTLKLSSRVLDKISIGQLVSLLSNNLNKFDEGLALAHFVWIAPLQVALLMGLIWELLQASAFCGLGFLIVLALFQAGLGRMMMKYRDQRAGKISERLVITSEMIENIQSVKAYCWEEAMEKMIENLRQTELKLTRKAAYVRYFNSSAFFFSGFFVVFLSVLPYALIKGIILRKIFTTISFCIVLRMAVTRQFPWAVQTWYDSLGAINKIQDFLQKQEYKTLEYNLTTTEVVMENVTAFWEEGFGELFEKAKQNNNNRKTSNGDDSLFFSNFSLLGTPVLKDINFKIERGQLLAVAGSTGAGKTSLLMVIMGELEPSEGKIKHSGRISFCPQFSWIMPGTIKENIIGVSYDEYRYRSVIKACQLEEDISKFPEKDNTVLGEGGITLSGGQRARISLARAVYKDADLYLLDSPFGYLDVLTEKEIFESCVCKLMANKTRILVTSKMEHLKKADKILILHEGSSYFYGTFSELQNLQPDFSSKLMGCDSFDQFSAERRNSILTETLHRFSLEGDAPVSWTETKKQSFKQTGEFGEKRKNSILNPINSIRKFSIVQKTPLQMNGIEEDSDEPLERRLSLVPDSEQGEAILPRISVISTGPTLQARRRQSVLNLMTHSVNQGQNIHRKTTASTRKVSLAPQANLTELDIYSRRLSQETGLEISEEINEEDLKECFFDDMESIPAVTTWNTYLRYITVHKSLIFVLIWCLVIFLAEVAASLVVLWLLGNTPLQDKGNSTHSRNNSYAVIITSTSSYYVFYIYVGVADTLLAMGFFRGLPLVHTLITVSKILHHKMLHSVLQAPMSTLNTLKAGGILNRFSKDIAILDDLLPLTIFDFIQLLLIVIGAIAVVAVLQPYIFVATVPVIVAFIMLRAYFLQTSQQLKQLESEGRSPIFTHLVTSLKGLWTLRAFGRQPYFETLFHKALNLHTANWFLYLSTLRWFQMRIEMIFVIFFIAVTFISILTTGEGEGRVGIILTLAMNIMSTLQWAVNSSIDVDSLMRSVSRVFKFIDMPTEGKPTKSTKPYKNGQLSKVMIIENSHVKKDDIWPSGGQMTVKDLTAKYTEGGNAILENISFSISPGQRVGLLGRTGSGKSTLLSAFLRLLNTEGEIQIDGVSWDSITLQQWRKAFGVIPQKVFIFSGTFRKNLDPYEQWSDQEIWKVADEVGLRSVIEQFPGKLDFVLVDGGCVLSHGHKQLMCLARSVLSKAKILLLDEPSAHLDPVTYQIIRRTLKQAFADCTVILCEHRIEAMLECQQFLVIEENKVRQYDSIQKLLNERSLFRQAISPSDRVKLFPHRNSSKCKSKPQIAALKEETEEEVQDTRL
# Assay: Flow cytometry on BHK-21 cells expressing 2PT-F508del-CFTR
# Assay type: cell-based
# Conditions: not given
# Procedure: (§1) Parental BHK-21 cells (ATCC; CCL-10) and cells stably overexpressing human wt-CFTR^[43,44,47] or 2PT-F508del-CFTR, as described above, were permeabilized with 0.01% n-Dodecyl-β-D-Maltopyranoside β-DDM—Inalco) at least for 2 h on ice. In the meantime, cells were incubated with 50 μg/ml nanobodies and DRAQ7 (0.3 μM—Biostatus) to monitor the permeabilization state. Nanobody binding was detected by using His-tag specific antibody (Invitrogen, catalogue number MA1-135, 1 μg/ml) or Myc-tag specific antibody (Invitrogen, catalogue number 13-2500, 2 μg/ml) and then anti-mouse-Alexa Fluor 488 (Invitrogen, catalogue number A11001, 1.3 μg/ml) at least for 30 min on ice. Cells were washed one time between each step by centrifugation (200×g for 5 min at 4° C.). All incubations (100 μl) and washes (1.5 ml) were performed in PBS with 6% fetal bovine serum (FBS) and 0.01%13-DDM on ice. Cells fluorescence was measured with Gallios Flow Cytometer (Beckman Coulter). Data were analyzed with Kaluza software.
row,Molecule,binding to 2PT-F508del expressing cells
1,B5,bind efficiently
2,B1,bind efficiently
3,B2,not able to bind

# Biological target: T3, purified human CFTR (wt-CFTR) (Homo sapiens, UniProt P13569)
# T3 construct: His10-SUMO* (N); FLAG; EGFP (C); made in house; host or cells: HEK 293 cell line D165
# T3 sequence (P13569 whole entry): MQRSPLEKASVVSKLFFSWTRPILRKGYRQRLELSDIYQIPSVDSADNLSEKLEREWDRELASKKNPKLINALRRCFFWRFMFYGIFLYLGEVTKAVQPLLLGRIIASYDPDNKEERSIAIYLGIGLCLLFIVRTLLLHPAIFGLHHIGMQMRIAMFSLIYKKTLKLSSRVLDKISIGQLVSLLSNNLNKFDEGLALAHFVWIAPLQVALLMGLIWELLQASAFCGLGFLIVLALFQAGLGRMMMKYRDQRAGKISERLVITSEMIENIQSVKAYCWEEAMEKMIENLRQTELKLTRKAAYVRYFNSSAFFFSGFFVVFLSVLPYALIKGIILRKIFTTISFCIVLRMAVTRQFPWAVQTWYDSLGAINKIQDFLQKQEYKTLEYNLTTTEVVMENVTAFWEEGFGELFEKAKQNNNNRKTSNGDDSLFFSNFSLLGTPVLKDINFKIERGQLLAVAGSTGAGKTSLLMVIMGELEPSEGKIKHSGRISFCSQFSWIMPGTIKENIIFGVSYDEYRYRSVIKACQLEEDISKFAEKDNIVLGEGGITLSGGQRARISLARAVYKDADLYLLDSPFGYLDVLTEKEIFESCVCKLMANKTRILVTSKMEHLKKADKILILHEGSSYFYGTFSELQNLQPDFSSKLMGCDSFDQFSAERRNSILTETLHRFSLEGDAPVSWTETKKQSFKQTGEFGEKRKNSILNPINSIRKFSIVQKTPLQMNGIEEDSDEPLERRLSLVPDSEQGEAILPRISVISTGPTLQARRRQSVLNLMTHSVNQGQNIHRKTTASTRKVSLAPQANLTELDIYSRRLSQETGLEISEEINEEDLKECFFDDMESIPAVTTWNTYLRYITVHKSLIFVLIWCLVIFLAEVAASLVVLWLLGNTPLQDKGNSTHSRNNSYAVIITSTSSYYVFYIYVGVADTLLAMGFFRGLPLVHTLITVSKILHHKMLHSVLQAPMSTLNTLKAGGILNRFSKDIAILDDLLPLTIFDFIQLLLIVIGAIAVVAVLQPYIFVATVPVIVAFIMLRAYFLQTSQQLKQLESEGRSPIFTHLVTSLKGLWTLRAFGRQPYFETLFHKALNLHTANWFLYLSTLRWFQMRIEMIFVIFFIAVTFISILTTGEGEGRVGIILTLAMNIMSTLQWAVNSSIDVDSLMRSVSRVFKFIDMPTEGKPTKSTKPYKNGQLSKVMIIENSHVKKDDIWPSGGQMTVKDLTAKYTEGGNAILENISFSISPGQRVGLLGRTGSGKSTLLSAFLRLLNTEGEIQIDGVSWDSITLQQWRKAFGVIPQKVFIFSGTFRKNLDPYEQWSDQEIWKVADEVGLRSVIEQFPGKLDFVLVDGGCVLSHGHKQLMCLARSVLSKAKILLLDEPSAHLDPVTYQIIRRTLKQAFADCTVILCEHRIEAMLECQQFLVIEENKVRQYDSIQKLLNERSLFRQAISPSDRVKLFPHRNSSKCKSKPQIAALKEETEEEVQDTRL
# Assay: Full-length CFTR ELISA
# Assay type: binding
# Conditions: immobilized CFTR, nanobodies titrated
# Procedure: Strep-Tactin XT coated microplate (iba Life Science) was coated overnight at 4° C. with Twin-Strep-tagged nanobodies (5 μg/ml). Plate was blocked with 4% milk for 2 h at RT. Then different concentrations of CFTR (10^−10 to 10^−8 M) were incubated for 2 h at 4° C. CFTR binding was detected with monoclonal antibodies L12B4, MM13, 154, 660, 570, 596 specific to CFTR obtained from the CFTR Antibody Distribution Program (http://cftrantibodies.web.unc.edu/available-antibodies)46 and then anti-mouse-HRP antibody (Millipore, catalogue number: AP308P, 0.5 μg/ml) for 1 h 30 min at 4° C. For Bmax determination Pierce Nickel Coated Plate (ThermoScientific) was coated 1 h at 4° C. with CFTR (8 μg/ml). Plate was blocked with 4% milk for 2 h at 4° C. Then different concentrations of nanobodies (10^−9 to 10^−6 M) were incubated for 2 h at 4° C. Nanobody binding was detected with Myc-tag specific antibody (Sigma, catalogue number: C3956, 0.5 μg/ml) and then anti-rabbit-HRP antibody (Cell Signaling, catalogue number: 7074S, 1:1000 dilution) for 1 h 30 min at 4° C. Between each step wells were washed 3 times by aspiration with 50 mM HEPES pH 7.5, 150 mM NaCl, 10% glycerol, 2 mM ATP, 2.5 mM MgCl2, 0.01% DMNG (Anatrace). Incubations were performed in the same buffer with 0.4% milk. Reaction was visualized by using 1-Step Ultra TMB-ELISA (ThermoScientific) and stopped with H2SO4 (500 mM final). Absorbance was measured at 450 nm using SynergyMx (BioTek).
# Affinity constants (KD) and thermodynamic parameters from ITC experiments were determined using one-site binding model with MicroCal Origin 7.0 software (Origin Lab Corp.). Dose response ELISA curves of each Nb binding to either isolated NBD1 or purified FL-CFTR were fitted using the sigmoidal dose-response equation from GraphPad Prism 3. DSC data were analyzed with the MicroCal Origin 7.0 software (Origin Lab Corp.), from which the unfolding temperature (Tm) was obtained.
row,Molecule,Bmax
1,B5,about 50 % of T2a maximum signal
2,B2,~30 % of T2a maximum signal

# Same assay, conditions: nanobodies immobilized, purified FL-CFTR titrated
row,Molecule,binding of purified FL-CFTR
1,B5,bind with high affinity
2,B1,bind with high affinity
3,B2,bind with high affinity

# Biological target: T4, wt-CFTR (Homo sapiens, UniProt P13569)
# T4 sequence (P13569 whole entry): as above
# Assay: Flow cytometry on permeabilized BHK-21 cells overexpressing wt-CFTR
# Assay type: cell-based
# Set-up: expressed in transfected cells
# Conditions: compared to negative control nanobody
# Procedure: as §1
row,Molecule,labelling of BHK-21 cells overexpressing wt-CFTR
1,B5,increased labelling
2,B1,increased labelling
3,B2,increased labelling
4,B3,increased labelling
5,B4,increased labelling

# Biological target: T4, wt-CFTR
# Assay: ATPase activity of wt-CFTR
# Assay type: biochemical
# Set-up: His10-SUMO* (N); FLAG; EGFP (C); made in house; host or cells: HEK 293 cell line D165
# Conditions: saturating concentration of nanobody
# Procedure: To determine effect of nanobodies on functional stability, aliquots of purified wt-CFTR (25 nM) were preincubated 1 h on ice with 1 μM nanobody (or 15 μM, in the case of G3a). Substrate α-[32P]-ATP (2 μl) was then added for measurement of ATPase activity as previously described^[48]. Then, nanobody protection against thermal denaturation was determined after a 30 min thermal challenge of the protein complexes followed by an assay of residual ATPase.
row,Molecule,ATPase activity
1,B5,did not affect
2,B1,50 % of PKA-phosphorylated CFTR
3,B2,60 % of PKA-phosphorylated CFTR
4,B3,30 % of PKA-phosphorylated CFTR
5,B4,50 % of PKA-phosphorylated CFTR
